Measurements as given in patent EP4177273A1.

Tests used:
[1] = biological target: human Claudin 18 splice variant 2 (CLDN18.2) (human); assay: FACS, 2E5 Panc05.04 cells/100 µl stained with 50 µg/ml IMAB362
[2] = biological target: human Claudin 18 splice variant 2 (CLDN18.2) (human); assay: cell-based or functional assay
[3] = biological target: human Claudin 18 splice variant 2 (CLDN18.2) (human); assay: FACS with FITC-labeled IMAB362 on DANG-LVT cells 2 days after transduction with human CLDN18.2
[4] = biological target: human Claudin 18 splice variant 2 (CLDN18.2) (human); assay: FACS with FITC-labeled IMAB362 on MiaPaCa-2-LVT cells 2 days after transduction with human CLDN18.2
[5] = biological target: human Claudin 18 splice variant 2 (CLDN18.2) (human); assay: FACS with FITC-labeled IMAB362 on CAPAN1-LVT cells 2 days after transduction with human CLDN18.2
[6] = biological target: human Claudin 18 splice variant 2 (CLDN18.2) (human); assay: FACS with FITC-labeled IMAB362 on Patu8902-LVT cells 2 days after transduction with human CLDN18.2
[7] = biological target: human Claudin 18 splice variant 2 (CLDN18.2) (human); assay: FACS with FITC-labeled IMAB362 on Suit2-LVT cells 2 days after transduction with human CLDN18.2
[8] = biological target: human Claudin 18 splice variant 2 (CLDN18.2) (human); assay: FACS with FITC-labeled IMAB362 on YAPC-LVT cells 2 days after transduction with human CLDN18.2
[9] = biological target: human Claudin 18 splice variant 2 (CLDN18.2) (human); assay: FACS with FITC-labeled IMAB362 on BxPC3-LVT cells 2 days after transduction with human CLDN18.2
[10] = biological target: human Claudin 18 splice variant 2 (CLDN18.2) (human); assay: FACS with FITC-labeled IMAB362 on HPAC-LVT cells 2 days after transduction with human CLDN18.2
[11] = biological target: human Claudin 18 splice variant 2 (CLDN18.2) (human); assay: FACS, 2E5 Patu8988S cells/100 µl stained with 50 µg/ml IMAB362

IMAB362 (antibody)
CLDN18 surface expression (FACS), % positive cells [1]: 15% | ADCC EC50 (ng/ml), BxPC3 LVT cells, human PBMC E:T 40:1 [2]: 47.7 ng/mL | ADCC EC50 (ng/ml), CAPAN1-LVT cells, human PBMC E:T 40:1 [2]: 65 ng/mL | ADCC EC50 (ng/ml), DANG cells (endogenous CLDN18.2), human PBMC E:T 40:1 [2]: 4980 ng/mL | ADCC EC50 (ng/ml), DANG-LVT cells, human PBMC E:T 40:1 [2]: 52.3 ng/mL | ADCC EC50 (ng/ml), HPAC-LVT cells, human PBMC E:T 40:1 [2]: 117 ng/mL | ADCC EC50 (ng/ml), MiaPaCa2-LVT cells, human PBMC E:T 40:1 [2]: 23.4 ng/mL | ADCC EC50 (ng/ml), Panc05.04 cells (endogenous CLDN18.2), human PBMC E:T 40:1 [2]: 5730 ng/mL | ADCC EC50 (ng/ml), Patu8902-LVT cells, human PBMC E:T 40:1 [2]: 49.2 ng/mL | ADCC EC50 (ng/ml), Patu8988S cells (endogenous CLDN18.2), human PBMC E:T 40:1 [2]: 175 ng/mL | ADCC EC50 (ng/ml), Suit2-LVT cells, human PBMC E:T 40:1 [2]: 73.2 ng/mL | ADCC EC50 (ng/ml), YAPC-LVT cells, human PBMC E:T 40:1 [2]: 29.5 ng/mL | ADCC EC50, DANG/Panc05.04 cells, PBMCs of different donors [2]: 0.1 to 38 µg/mL | ADCC EC50, Patu8988S cells, PBMCs of different donors [2]: 0.01 to 1.4 µg/mL | ADCC Max. lysis (%), BxPC3 LVT cells, human PBMC E:T 40:1 [2]: 90.6% | ADCC Max. lysis (%), CAPAN1-LVT cells, human PBMC E:T 40:1 [2]: 92.6% | ADCC Max. lysis (%), DANG cells (endogenous CLDN18.2), human PBMC E:T 40:1 [2]: 52.5% | ADCC Max. lysis (%), DANG-LVT cells, human PBMC E:T 40:1 [2]: 85.9% | ADCC Max. lysis (%), HPAC-LVT cells, human PBMC E:T 40:1 [2]: 76.2% | ADCC Max. lysis (%), MiaPaCa2-LVT cells, human PBMC E:T 40:1 [2]: 78.1% | ADCC Max. lysis (%), Panc05.04 cells (endogenous CLDN18.2), human PBMC E:T 40:1 [2]: 67.1% | ADCC Max. lysis (%), Patu8902-LVT cells, human PBMC E:T 40:1 [2]: 74.1% | ADCC Max. lysis (%), Patu8988S cells (endogenous CLDN18.2), human PBMC E:T 40:1 [2]: 70.1% | ADCC Max. lysis (%), Suit2-LVT cells, human PBMC E:T 40:1 [2]: 81.2% | ADCC Max. lysis (%), YAPC-LVT cells, human PBMC E:T 40:1 [2]: 91.5% | CDC EC50 (ng/ml), CAPAN1-LVT cells, human serum pool [2]: 970 ng/mL | CDC EC50 (ng/ml), MiaPaCa2-LVT cells, human serum pool [2]: 340 ng/mL | CDC EC50 (ng/ml), Patu8902-LVT cells, human serum pool [2]: 291 ng/mL | CDC EC50, MiaPaCa-2-LVT cells pretreated with gemcitabine [2]: 4.68 µg/mL | CDC EC50, MiaPaCa-2-LVT, Suit2-LVT and CAPAN1-LVT cells, human serum [2]: 0.3 to 2.6 µg/mL | CDC EC50, medium cultivated MiaPaCa-2-LVT cells [2]: 7.67 µg/mL | CDC Max. lysis (%), CAPAN1-LVT cells, human serum pool [2]: 79.1% | CDC Max. lysis (%), MiaPaCa2-LVT cells, human serum pool [2]: 78.4% | CDC Max. lysis (%), Patu8902-LVT cells, human serum pool [2]: 76.7% | Transduction efficiency (% cells positive) [3]: 87.5% | Transduction efficiency (% cells positive) [4]: 96.3% | Transduction efficiency (% cells positive) [5]: 89.6% | Transduction efficiency (% cells positive) [6]: 93% | Transduction efficiency (% cells positive) [7]: 92.2% | Transduction efficiency (% cells positive) [8]: 82.2% | Transduction efficiency (% cells positive) [9]: 92.8% | Transduction efficiency (% cells positive) [10]: 97.3% | CLDN18 surface expression (FACS), % positive cells [11]: 81.7%
